Assay results from CN102050877A (NAT ENGINEERING RES CT OF ANTIBODY MEDICINE SHANGHAI CO LTD, dated 2011).

Target: T1, 人CD20 (on Raji cells) (human, UniProt P11836 1-297)
T1 construct: whole, on cells; No recombinant CD20 was used; also called Raja
T1 sequence (looked up): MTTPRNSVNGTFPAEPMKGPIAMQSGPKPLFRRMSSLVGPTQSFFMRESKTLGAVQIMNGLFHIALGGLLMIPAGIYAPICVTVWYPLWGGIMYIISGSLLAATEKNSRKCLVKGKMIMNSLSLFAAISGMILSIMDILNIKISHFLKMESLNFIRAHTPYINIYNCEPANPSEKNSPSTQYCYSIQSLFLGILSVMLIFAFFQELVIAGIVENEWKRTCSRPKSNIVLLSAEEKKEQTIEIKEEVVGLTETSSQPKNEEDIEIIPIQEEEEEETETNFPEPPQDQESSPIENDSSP
Test: in vitro antigen binding on Raji cells (flow cytometry)

- binding result: binds
B1: 抗人CD20人源化抗体hu8E4 (hu8E4Hb/hu8E4Lb) (antibody, human IgG1, kappa, V domains shown)
VH: EVQLVESGGGLVQPGGSLRLSCAASGFTFTSYNMHWVRQAPGKGLEWIGAIYPENGDTSYNQKFKDRATLTADKSKNTAYLQMNSLRAEDTAVYYCARWHYYGNGGALDYWGQGTLVTVSS
VL: DIQMTQSPSSLSASVGDRVTITCRASGNIHNYLAWYQQKPGKAPKLLVHNAKTLPDGVPSRFSGSGSGTDFTLTISSLQPEDFATYYCQQFWSNPWTFGQGTKVEIKR
notes: LCDR1 RASGNIHNYLA, LCDR2 NAKTLPD, LCDR3 QQFWSNPWT; The expression constructs carried signal peptides; also called hu8E4VHb/hu8E4VLb
